# Where no end group is shown, it is not given here.
# T1: humanin (HN) (human)
# T1 construct: Unlabelled HN dotted on nitrocellulose as positive control; also called Humanin (M)
# T1 peptide: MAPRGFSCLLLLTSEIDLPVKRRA
# T2: SHLP1 (human)
# T2 construct: Dotted on nitrocellulose; also called small humanin-like peptide 1; SHLP1 (M)
# T2 peptide: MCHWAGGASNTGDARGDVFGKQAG
# T3: SHLP2 (human)
# T3 construct: Dotted on nitrocellulose; also called small humanin-like peptide 2; SHLP2 (M)
# T3 peptide: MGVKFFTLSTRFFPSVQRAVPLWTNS
# T4: SHLP4 (human)
# T4 construct: Dotted on nitrocellulose; also called small humanin-like peptide 4; SHLP4 (M)
# T4 peptide: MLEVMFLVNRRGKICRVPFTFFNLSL
# What was measured:
# Assay in all cases: dot blot: peptide on nitrocellulose, probed with biotinylated-HN and streptavidin-HRP
# [1] = target: T1, humanin (HN)
# Method: (§1) FIG. 12 HN binds to SHLP2 and SHLP4. 2, 5 and 10 nmol of IGF-1 (negative control), HN, SHLP1, 2 or 4 were dotted on to nitrocellulose membrane and left to dry. The membrane was blocked, incubated with biotinylated-HN and streptavidin-HRP and exposed by autoradiography.
# (§2) To test a dimerization hypothesis, we performed a dot-blot using biotinylated-HN. Two, 5 or 10 nmol IGF-I (negative control), HN (positive control) or SHLP peptide were dotted on to nitrocellulose membrane, and their ability to bind to biotinylated-HN was assessed immunologically. […] Specific interactions that occur may be determined using, e.g., dot blots with biotinylated SHLPs, and/or antibodies against specific SHLPs.
# [2] = target: T2, SHLP1
# Method: as §1, §2
# [3] = target: T3, SHLP2
# Method: as §1, §2
# [4] = target: T4, SHLP4
# Method: as §1, §2
binder,measurement,setting,value
"MAPRGFSCLLLLTSEIDLPVKRRA (also: biotinylated, site not given here, Probe in solution in the dot blot, detected with streptavidin-HRP; also called biotinylated humanin) [biotinylated-HN]",binding result,[1],binds
same,binding result,[2],"no binding (tested: 2, 5 or 10 nmol dotted)"
same,binding result,[3],binds
same,binding result,[4],binds

# Reference: patent US20110039771A1 (University of California, published 2011)
